From PMC5365251 (2017)
Non-standard residues stand in square brackets, D forms with d. Primed or numbered codes have the meaning given here. No end group written: not given here. *: point of attachment. PEG28′ = (PEG)28 spacer, 28 polyethylene glycol repeats; Biotin = O=C1N[C@H]2[C@H](CS[C@H]2CCCCC(=O)*)N1; pY = N[C@@H](Cc1ccc(OP(=O)(O)O)cc1)C(=O)O

Biological target: T1, LAIR-1 ITIM phosphopeptide (PEG28-ITIM) (Mus musculus)
T1 chain: {Biotin-PEG28′}-DLQEVT[pY]IQLDHH
Experiment: SPR

Kd: 9.38 µM
B1: SHP-1 (protein)
chain: not shown
